These results are taken from patent US20230265179A1 (TWIST BIOSCIENCE, published 2023).

T1: CD40L over-expressed on Expi293 cells (UniProt P29965 1-261, limits assumed)
T1 construct: whole, on cells; also called cytokine over-expressing Expi293 cells
T1 sequence (looked up): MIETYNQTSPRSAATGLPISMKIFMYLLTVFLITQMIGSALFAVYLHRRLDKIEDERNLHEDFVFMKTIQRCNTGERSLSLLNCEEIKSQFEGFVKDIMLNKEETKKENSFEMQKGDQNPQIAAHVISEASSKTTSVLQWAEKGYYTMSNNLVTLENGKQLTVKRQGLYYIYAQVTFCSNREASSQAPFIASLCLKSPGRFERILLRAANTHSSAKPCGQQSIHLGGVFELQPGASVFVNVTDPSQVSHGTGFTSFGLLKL

B1: CD40L-156 (antibody, V domains shown)
VH: EVQLLESGGGLVQPGGSLRLSCAASGFMFSWYDMGWVRQAPGKGLEWVSSIDWHGWVTYYADSVKGRFTISRDNSKNTLYLQMNSLRAEDTAVYYCAKAYYGGFDYWGQGTLVTVSS
VL: DIQMTQSPSSLSASVGDRVTITCRASQPIGPDLLWYQQKPGKAPKLLIYDNTNRPSGVPSRFSGSGSGTDFTLTISSLQPEDFATYYCQQSQAAPLTFGQGTKVEIK
notes: IgG2
B2: CD40L-158 (antibody, V domains shown)
VH: EVQLLESGGGLVQPGGSLRLSCAASGGYNFRDYMHWVRQAPGKGLEWVSSIGRHGGRTYYADSVKGRFTISRDNSKNTLYLQMNSLRAEDTAVYYCAKDLGQGFDYWGQGTLVTVSS
VL: DIQMTQSPSSLSASVGDRVTITCRASQDVSSGVAWYQQKPGKAPKLLIYQMSHLASGVPSRFSGSGSGTDFTLTISSLQPEDFATYYCSSQDTVTRVLGQGTKVEIK
notes: IgG2
B3: CD40L-167 (antibody, V domains shown)
VH: EVQLLESGGGLVQPGGSLRLSCAASGGYNFRDYMHWVRQAPGKGLEWVSSISNSGGSTYYADSVKGRFTISRDNSKNTLYLQMNSLRAEDTAVYYCAKNLGQGFDYWGQGTLVTVSS
VL: DIQMTQSPSSLSASVGDRVTITCRASESVEYHGTSLMHWYQQKPGKAPKLLIYGTSNLESGVPSRFSGSGSGTDFTLTISSLQPEDFATYYCQQVVWRPFTFGQGTKVEIK
notes: IgG2
B4: CD40L-170 (antibody, V domains shown)
VH: EVQLLESGGGLVQPGGSLRLSCAASGGYNFKDYMHWVRQAPGKGLEWVSSIGRHGGRTYYADSVKGRFTISRDNSKNTLYLQMNSLRAEDTAVYYCAKDLGQGFDYWGQGTLVTVSS
VL: DIQMTQSPSSLSASVGDRVTITCRASQDVSSGVAWYQQKPGKAPKLLIYQMSHLASGVPSRFSGSGSGTDFTLTISSLQPEDFATYYCSSQDTVTRVLGQGTKVEIK
notes: IgG2
B5: CD40L-134 (VHH)
VHH: EVQLVESGGGLVQPGGSLRLSCAASGFTFSRYEMGWFRQAPGKEREFVATITEGGARNYADSVKGRFTISADNSKNTAYLQMNSLKPEDTAVYYCAAEIGYYSGGTYFSSEAWGQGTLVTVSS
B6: CD40L-159 (antibody, V domains shown)
VH: EVQLLESGGGLVQPGGSLRLSCAASGFDFSDYEMSWVRQAPGKGLEWVSSITSEGGSTYYADSVKGRFTISRNNSKNTLYLQMNSLRAEDTAVYYCAKPDVLFDYWGQGTLVTVSS
VL: DIQMTQSPSSLSASVGDRVTITCRASQDISNYLNWYQQKPGKAPKLLIYGKKNRPSGVPSRFSGSGSGTDFTLTISSLQPEDFATYYCQQGYTRTDIDNTFGQGTKVEIK
notes: IgG2
B7: CD40L-164 (antibody, V domains shown)
VH: EVQLLESGGGLVQPGGSLRLSCAASGFDFSDYEMSWVRQAPGKGLEWVSSITSEGGSTYYADSVKGRFTISRDNSKNTLYLQMNSLRAEDTAVYYCAKPDVLFDYWGQGTLVTVSS
VL: DIQMTQSPSSLSASVGDRVTITCRASSSVSYMHWYQQKPGKAPKLLIYAASDLESGVPSRFSGSGSGTDFTLTISSLQPEDFATYYCSQSTHVPTFGQGTKVEIK
notes: IgG2
B8: CD40L-161 (antibody, V domains shown)
VH: EVQLLESGGGLVQPGGSLRLSCAASGFDFSDYEMSWVRQAPGKGLEWVSSITSEGGSTYYADSVKGRFTISRDNSKNTLYLQMNSLRAEDTAVYYCAKPDVLFDYWGQGTLVTVSS
VL: DIQMTQSPSSLSASVGDRVTITCRASQDVSSGVAWYQQKPGKAPKLLIYATSTLQSGVPSRFSGSGSGTDFTLTISSLQPEDFATYYCQQSFSVPAFGQGTKVEIK
notes: IgG2
B9: CD40L-169 (antibody, V domains shown)
VH: EVQLLESGGGLVQPGGSLRLSCAASGFDFSDYEMSWVRQAPGKGLEWVSSITSEGGSTYYADSVKGRFTISRDNSKNTLYLQMNSLRAEDTAVYYCAKPDVLFDYWGQGTLVTVSS
VL: DIQMTQSPSSLSASVGDRVTITCSGDKLGDKYAYWYQQKPGKAPKLLIYFTSTLAAGVPSRFSGSGSGTDFTLTISSLQPEDFATYYCQQSYSSAPTFGQGTKVEIK
notes: IgG2
B10: CD40L-168 (antibody, V domains shown)
VH: EVQLLESGGGLVQPGGSLRLSCAASGFDFSDYEMSWVRQAPGKGLEWVSSITSEGGSTYYADSVKGRFTISRDNSKNTLYLQMNSLRAEDTAVYYCAKPDVLFDYWGQGTLVTVSS
VL: DIQMTQSPSSLSASVGDRVTITCSGDNLGDKYVHWYQQKPGKAPKLLIYGKNIRPSGVPSRFSGSGSGTDFTLTISSLQPEDFATYYCQSGSSSANAVFGQGTKVEIK
notes: IgG2
B11: CD40L-165 (antibody, V domains shown)
VH: EVQLLESGGGLVQPGGSLRLSCAASGFDFSDYEMSWVRQAPGKGLEWVSSITSEGGSTYYADSVKGRFTISRDNSKNTLYLQMNSLRAEDTAVYYCAKPDVLFDYWGQGTLVTVSS
VL: DIQMTQSPSSLSASVGDRVTITCRTSQDISNYLNWYQQKPGKAPKLLIYGASTLQSGVPSRFSGSGSGTDFTLTISSLQPEDFATYYCQQSYDNPLTFGQGTKVEIK
notes: IgG2
B12: CD40L-160 (antibody, V domains shown)
VH: EVQLLESGGGLVQPGGSLRLSCAASGFDFSDYEMSWVRQAPGKGLEWVSSITSEGGSTYYADSVKGRFTISRDNSKNTLYLQMNSLRAEDTAVYYCAKPDVLFDYWGQGTLVTVSS
VL: DIQMTQSPSSLSASVGDRVTITCRASQDVSSGVAWYQQKPGKAPKLLIYGKKNRPSGVPSRFSGSGSGTDFTLTISSLQPEDFATYYCQAWDRDTGVFGQGTKVEIK
notes: IgG2
B13: CD40L-191 (antibody, V domains shown)
VH: EVQLLESGGGLVQPGGSLRLSCAASGFDFSDYEMSWVRQAPGKGLEWVSSITSEGGSTYYADSVKGRFTISRDNSKNTLYLQMNSLRAEDTAVYYCAKPDVLFDYWGQGTLVTVSS
VL: DIQMTQSPSSLSASVGDRVTITCSGNKLGDKYASWYQQKPGKAPKLLIYDTSKVASGVPSRFSGSGSGTDFTLTISSLQPEDFATYYCQQSYETPLTFGQGTKVEIK
notes: IgG2
B14: CD40L-175 (antibody, V domains shown)
VH: EVQLLESGGGLVQPGGSLRLSCAASGFDFSDYEMSWVRQAPGKGLEWVSSITSEGGSTYYADSVKGRFTISRDNSKNTLYLQMNSLRAEDTAVYYCAKPDKDFDYWGQGTLVTVSS
VL: DIQMTQSPSSLSASVGDRVTITCRASQTIGDYLNWYQQKPGKAPKLLIYDASNLQSGVPSRFSGSGSGTDFTLTISSLQPEDFATYYCQQSYELPLTFGQGTKVEIK
notes: IgG2
B15: CD40L-180 (antibody, V domains shown)
VH: EVQLLESGGGLVQPGGSLRLSCAASGFDFSDYEMSWVRQAPGKGLEWVSSITSEGGSTYYADSVKGRFTISRDNSKNTLYLQMNSLRAEDTAVYYCAKPDVLFDYWGQGTLVTVSS
VL: DIQMTQSPSSLSASVGDRVTITCRASQSILSYLNWYQQKPGKAPKLLIYGASSLESGVPSRFSGSGSGTDFTLTISSLQPEDFATYYCQQTYDTPLTFGQGTKVEIK
notes: IgG2
B16: CD40L-166 (antibody, V domains shown)
VH: EVQLLESGGGLVQPGGSLRLSCAASGFDFSDYEMSWVRQAPGKGLEWVSSITSEGGSTYYADSVKGRFTISRDNSKNTLYLQMNSLRAEDTAVYYCAKPDVLFDYWGQGTLVTVSS
VL: DIQMTQSPSSLSASVGDRVTITCRASQSIISYVNWYQQKPGKAPKLLIYGASNLHSGVPSRFSGSGSGTDFTLTISSLQPEDFATYYCQQSYSTPTFGQGTKVEIK
notes: IgG2
B17: CD40L-121 (VHH)
VHH: EVQLVESGGGLVQPGGSLRLSCAASGRTFSTYAMGWFRQAPGKEREFVAVIYSSDGSTLYADSVKGRFTISADNSKNTAYLQMNSLKPEDTAVYYCAAEPYGSGSSLISEYDWGQGTLVTVSS
B18: CD40L-132 (VHH)
VHH: EVQLVESGGGLVQPGGSLRLSCAASGSIDRINAMGWFRQAPGKEREFIAVIYWRDGSSLYADSVKGRFTISADNSKNTAYLQMNSLKPEDTAVYYCAAEPYGSGSSLISEYDWGQGTLVTVSS
B19: CD40L-123 (VHH)
VHH: EVQLVESGGGLVQPGGSLRLSCAASGRTFSIYAMGWFRQAPGKEREFVAVIYSSDGSTLYADSVKGRFTISADNSKNTAYLQMNSLKPEDTAVYYCAAEPYGSGSSLMSEYDWGQGTLVTVSS
B20: CD40L-140 (VHH)
VHH: EVQLVESGGGLVQPGGSLRLSCAASGNIFSHNAMGWFRQAPGKEREFVASMRGSGSTVYADSVKGRFTISADNSKNTAYLQMNSLKPEDTAVYYCAKSVYGDYIFDYWGQGTLVTVSS
B21: CD40L-137 (VHH)
VHH: EVQLVESGGGLVQPGGSLRLSCAASGFTFSRYEMGWFRQAPGKEREFVAAIDDGGNTEYADSVKGRFTISADNSKNTAYLQMNSLKPEDTAVYYCAAVYVSTWGNGYDWGQGTLVTVSS
B22: CD40L-162 (antibody, V domains shown)
VH: EVQLLESGGGLVQPGGSLRLSCAASGGYNFRDYMHWVRQAPGKGLEWVAEIRNKANNHATKYADSVKGRFTISRDNSKNTLYLQMNSLRAEDTAVYYCAKNLGQGFDYWGQGTLVTVSS
VL: DIQMTQSPSSLSASVGDRVTITCRTSQDISNYLNWYQQKPGKAPKLLIYATSNLASGVPSRFSGSGSGTDFTLTISSLQPEDFATYYCQQSYSSAPMFGQGTKVEIK
notes: IgG2
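Note: ratio is the mean fluorescence intensity on CD40L-overexpressing Expi293 cells divided by the mean fluorescence intensity on parental Expi293 cells.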

The test deals with T1, CD40L over-expressed on Expi293 cells. Nature of the test: flow cytometry, 100 nM antibody, CD40L-Expi293 vs parent Expi293 cells. (In general: In flow cytometry, cells or beads pass a laser one at a time.)
Experimental: All incubations and washes were in buffer containing PBS+1% BSA. MFI Ratio is defined by the mean fluorescence intensity (MFI) of the cytokine over-expressing Expi293 cell over the Expi293 parent cell. […] EC50 was calculated in GraphPad Prism.
Take B1: the “100 nM FACS (MFI Ratio)” value stood at 1.3 ratio. For the molecule B2, the “100 nM FACS (MFI Ratio)” value came out at 1.5 ratio.

With B3, the “100 nM FACS (MFI Ratio)” value amounted to 1.4 ratio. Consider B4, for which the “100 nM FACS (MFI Ratio)” value amounted to 0.6 ratio. For B5, the “100 nM FACS (MFI Ratio)” value is 7.3 ratio. Regarding B6, the “100 nM FACS (MFI Ratio)” value came to 0.3 ratio. Then B7, with 0.4 ratio; and B8, with 0.9 ratio; and B9, with 0.4 ratio. B10: the “100 nM FACS (MFI Ratio)” value worked out at 0.2 ratio.

Take B11: the “100 nM FACS (MFI Ratio)” value was 0.5 ratio. With B12, the “100 nM FACS (MFI Ratio)” value is 0.3 ratio. With B13, the “100 nM FACS (MFI Ratio)” value turned out to be 9.7 ratio.

On to B14, for which the “100 nM FACS (MFI Ratio)” value is 0.4 ratio. Consider B15, for which the “100 nM FACS (MFI Ratio)” value was determined as 4.3 ratio. Then B16, with 1.1 ratio; and B17, with 6.9 ratio; and B18, with 3.9 ratio. On to B19, for which the “100 nM FACS (MFI Ratio)” value worked out at 6.7 ratio. For B20, the “100 nM FACS (MFI Ratio)” value was found to be 4.3 ratio.

In the case of B21, the “100 nM FACS (MFI Ratio)” value is 7.7 ratio. As for B22, the “100 nM FACS (MFI Ratio)” value is 0.3 ratio.
